T1: RAN1, full-length, purified recombinant (A. thaliana, UniProt Q9S7J8 1-1001, AlexaFluor488-NHS label)
T1 construct: P1B-type copper ATPase RAN1 (HMA7), Arabidopsis thaliana, full-length; also called full-length RAN1; HMA7; source: E. coli BL21 (DE3) or C43 (DE3), pETEV16b, solubilised with DDM, purified (HisTrap, TEV, Superdex200)
T1 sequence (looked up): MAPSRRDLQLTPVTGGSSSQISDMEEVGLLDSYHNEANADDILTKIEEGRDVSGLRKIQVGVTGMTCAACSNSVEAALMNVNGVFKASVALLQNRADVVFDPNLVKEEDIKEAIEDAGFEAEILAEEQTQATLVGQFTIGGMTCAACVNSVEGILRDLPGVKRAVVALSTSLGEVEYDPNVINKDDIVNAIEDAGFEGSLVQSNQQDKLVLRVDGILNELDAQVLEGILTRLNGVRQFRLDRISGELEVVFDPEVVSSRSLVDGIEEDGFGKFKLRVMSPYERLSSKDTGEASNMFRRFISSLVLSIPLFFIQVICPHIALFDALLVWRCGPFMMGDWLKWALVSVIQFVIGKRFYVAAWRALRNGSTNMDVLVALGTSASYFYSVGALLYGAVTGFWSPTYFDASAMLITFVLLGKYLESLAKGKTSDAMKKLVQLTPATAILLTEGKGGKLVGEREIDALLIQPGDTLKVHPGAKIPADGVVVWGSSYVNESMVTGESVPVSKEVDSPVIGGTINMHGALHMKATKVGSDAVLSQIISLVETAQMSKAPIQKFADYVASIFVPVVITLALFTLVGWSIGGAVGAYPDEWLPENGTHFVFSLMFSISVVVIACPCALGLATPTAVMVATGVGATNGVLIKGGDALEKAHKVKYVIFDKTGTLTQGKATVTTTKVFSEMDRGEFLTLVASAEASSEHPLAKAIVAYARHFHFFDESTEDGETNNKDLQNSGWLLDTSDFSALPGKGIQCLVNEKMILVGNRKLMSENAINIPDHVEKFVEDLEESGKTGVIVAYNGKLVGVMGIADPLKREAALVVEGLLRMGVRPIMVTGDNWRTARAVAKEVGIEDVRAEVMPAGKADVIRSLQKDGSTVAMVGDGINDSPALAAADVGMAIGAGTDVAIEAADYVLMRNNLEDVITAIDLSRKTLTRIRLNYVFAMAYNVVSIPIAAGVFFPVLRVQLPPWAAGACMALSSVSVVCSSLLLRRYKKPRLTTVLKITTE

T2: CterRAN1 (amino acids 299–1001), purified recombinant (A. thaliana, UniProt Q9S7J8 299-1001, AlexaFluor488-NHS label)
T2 construct: RAN1 (HMA7), Arabidopsis thaliana, amino acids 299-1001 (transmembrane copper transport site); also called CterRAN1 mutant; source: E. coli BL21 (DE3) or C43 (DE3), pETEV16b, solubilised with DDM, purified (HisTrap, TEV, Superdex200)
T2 sequence (looked up): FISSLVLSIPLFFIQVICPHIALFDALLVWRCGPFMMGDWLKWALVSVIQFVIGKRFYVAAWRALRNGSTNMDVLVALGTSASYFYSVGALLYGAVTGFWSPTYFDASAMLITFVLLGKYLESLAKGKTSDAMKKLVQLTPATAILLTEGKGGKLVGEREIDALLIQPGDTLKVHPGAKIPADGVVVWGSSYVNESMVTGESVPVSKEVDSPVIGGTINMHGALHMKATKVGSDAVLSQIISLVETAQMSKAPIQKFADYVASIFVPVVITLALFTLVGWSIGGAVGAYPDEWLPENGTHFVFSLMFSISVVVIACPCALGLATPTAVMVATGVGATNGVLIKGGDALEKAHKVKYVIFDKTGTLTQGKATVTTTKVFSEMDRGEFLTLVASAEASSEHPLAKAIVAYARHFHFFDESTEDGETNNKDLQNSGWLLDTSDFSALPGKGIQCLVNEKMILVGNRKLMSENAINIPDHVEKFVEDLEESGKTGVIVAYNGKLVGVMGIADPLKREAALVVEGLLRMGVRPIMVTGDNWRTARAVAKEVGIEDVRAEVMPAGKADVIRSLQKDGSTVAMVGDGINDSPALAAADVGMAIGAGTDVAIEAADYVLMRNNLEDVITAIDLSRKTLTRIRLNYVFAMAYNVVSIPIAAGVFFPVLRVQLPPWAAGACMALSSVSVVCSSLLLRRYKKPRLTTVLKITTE

B1: CCHΔ, deletion mutant of CCH lacking the C-terminal extension, purified recombinant (domain or fragment)
chain: MAQTVVLKVGMSCQGCVGAVNRVLGKMEGVESFDIDIKEQKVTVKGNVEPEAVFQTVSKTGKKTSYWPVEAEAEPK
modifications: AlexaFluor488-NHS label where it was the labelled partner (with ETR1^1–157 and ETR1^306–738); unlabelled where titrated
B2: ETR1^1–157, purified recombinant (domain or fragment, A. thaliana, UniProt P49333 1-157, looked up)
chain: MEVCNCIEPQWPADELLMKYQYISDFFIAIAYFSIPLELIYFVKKSAVFPYRWVLVQFGAFIVLCGATHLINLWTFTTHSRTVALVMTTAKVLTAVVSCATALMLVHIIPDLLSVKTRELFLKNKAAELDREMGLIRTQEETGRHVRMLTHEIRSTL
notes: In detergent (FosCholine-16); also called purified ETR1
B3: CCH, full-length, purified recombinant (natural protein, A. thaliana, UniProt O82089 1-121, looked up)
chain: MAQTVVLKVGMSCQGCVGAVNRVLGKMEGVESFDIDIKEQKVTVKGNVEPEAVFQTVSKTGKKTSYWPVEAEAEPKAEADPKVETVTETKTEAETKTEAKVDAKADVEPKAAEAETKPSQV
modifications: AlexaFluor488-NHS label where it was the labelled partner (with ETR1^1–157 and ETR1^306–738); unlabelled where titrated
notes: soluble copper chaperone CCH, Arabidopsis thaliana, full-length; Preloaded with Cu(I) in the copper transfer assay; also called CCH wildtype; full-length CCH; source: E. coli BL21 (DE3) or C43 (DE3), pETEV16b, purified (HisTrap, TEV, Superdex200)
B4: NterRAN1 (amino acids 1–298), purified recombinant (domain or fragment, A. thaliana, UniProt Q9S7J8 1-298, looked up)
chain: MAPSRRDLQLTPVTGGSSSQISDMEEVGLLDSYHNEANADDILTKIEEGRDVSGLRKIQVGVTGMTCAACSNSVEAALMNVNGVFKASVALLQNRADVVFDPNLVKEEDIKEAIEDAGFEAEILAEEQTQATLVGQFTIGGMTCAACVNSVEGILRDLPGVKRAVVALSTSLGEVEYDPNVINKDDIVNAIEDAGFEGSLVQSNQQDKLVLRVDGILNELDAQVLEGILTRLNGVRQFRLDRISGELEVVFDPEVVSSRSLVDGIEEDGFGKFKLRVMSPYERLSSKDTGEASNMFRR
modifications: AlexaFluor488-NHS label
notes: RAN1 (HMA7), Arabidopsis thaliana, cytosolic N-terminal region, amino acids 1-298; source: E. coli BL21 (DE3) or C43 (DE3), pETEV16b, purified (HisTrap, TEV, Superdex200)
B5: ATX1, purified recombinant (natural protein, A. thaliana, UniProt Q94BT9 1-76, looked up)
chain: MSQTVVLRVAMTCEGCVGAVKRVLGKMEGVESFDVDIKEQKVTVKGNVQPDAVLQTVTKTGKKTAFWEAEGETAKA
modifications: AlexaFluor488-NHS label where it was the labelled partner (with ETR1^1–157 and ETR1^306–738); unlabelled where titrated
notes: soluble copper chaperone ATX1, Arabidopsis thaliana; Preloaded with Cu(I) in the copper transfer assay; also called Cu(I)-ATX1; source: E. coli BL21 (DE3) or C43 (DE3), pETEV16b, purified (HisTrap, TEV, Superdex200)
B6: ETR1^306–738, purified recombinant (domain or fragment, A. thaliana, UniProt P49333 306-738, looked up)
chain: ALSHAAILEESMRARDLLMEQNVALDLARREAETAIRARNDFLAVMNHEMRTPMHAIIALSSLLQETELTPEQRLMVETILKSSNLLATLMNDVLDLSRLEDGSLQLELGTFNLHTLFREVLNLIKPIAVVKKLPITLNLAPDLPEFVVGDEKRLMQIILNIVGNAVKFSKQGSISVTALVTKSDTRAADFFVVPTGSHFYLRVKVKDSGAGINPQDIPKIFTKFAQTQSLATRSSGGSGLGLAISKRFVNLMEGNIWIESDGLGKGCTAIFDVKLGISERSNESKQSGIPKVPAIPRHSNFTGLKVLVMDENGVSRMVTKGLLVHLGCEVTTVSSNEECLRVVSHEHKVVFMDVCMPGVENYQIALRIHEKFTKQRHQRPLLVALSGNTDKSTKEKCMSFGLDGVLLKPVSLDNIRDVLSDLLEPRVLYEGM
notes: also called extra-membranous part of ETR1; soluble extra-membranous part of the receptor

What was measured:
[1] = target: B2; assay: MST; AlexaFluor488-labelled ATX1 (75 nM), CCH (100 nM) or CCHΔ (50 nM) in 50 mM HEPES, 300 mM NaCl, pH 7.5, 0.015% FosCholine-16, 0.05% Tween20; ETR1^1–157 titrated 7.5 µM to 0.2 nM; triplicates; apparent dissociation constants; conditions: both partners purified
[2] = target: T1, RAN1, full-length, purified recombinant; assay: MST; AlexaFluor488-labelled RAN1 or CterRAN1 (15 nM, 50 mM HEPES, 300 mM NaCl, 0.1% DDM, pH 7.5) or NterRAN1 (50 nM, same buffer without DDM, 0.05% Tween20); ATX1, CCH or CCHΔ titrated 30 µM to 0.9 nM; triplicates; apparent dissociation constants; conditions: both partners purified
[3] = target: CterRAN1 (amino acids 299–1001), purified recombinant (A. thaliana) (UniProt Q9S7J8); assay: MST; AlexaFluor488-labelled RAN1 or CterRAN1 (20 nM, 50 mM HEPES, 300 mM NaCl, 0.1% DDM, pH 7.5) or NterRAN1 (40 nM, 0.05% Tween20); ETR1^1–157 titrated 10 µM to 0.3 nM in buffer with 0.015% FosCholine-16; triplicates
[4] = target: T1, RAN1, full-length, purified recombinant; assay: as above; conditions: both partners purified
[5] = target: B4; assay: as above; conditions: both partners purified
[6] = target: B6; assay: MST; AlexaFluor488-labelled RAN1, CterRAN1, NterRAN1, ATX1, CCH or CCHΔ (50 nM) in buffer D (50 mM Tris, 250 mM NaCl, 0.015% FosCholine16, 2.5 mM DTT, 20% glycerol, pH 8.5); ETR1^306–738 titrated 37 µM to 1.1 nM; triplicates; conditions: both partners purified
[7] = target: T1, RAN1, full-length, purified recombinant; assay: as above; conditions: both partners purified
[8] = target: T2, CterRAN1 (amino acids 299–1001), …; assay: as above; conditions: both partners purified

B1 was tested, and the Kd [1] was 376 ± 93 nM and the Kd [2] was 77 ± 24 nM.

With B2 the Kd [3] was 2610 nM, the Kd [4] was 33 ± 8 nM and the Kd [5] was 205 ± 35 nM.

Binder B3 has a Kd [1] of 526 ± 101 nM and a Kd [2] of 55 ± 13 nM.

Binder B4 has a Kd [6] of 3.48 ± 0.315 µM.

Binder B5 has a Kd [1] of 313 ± 74 nM and a Kd [2] of 41 ± 11 nM.

In the case of B6, the Kd [7] is reported as 71 ± 17 nM and the Kd [8] is reported as 211 ± 38 nM.

— PMC6656775, “Soluble and membrane-bound protein carrier mediate direct copper transport to the ethylene receptor family” (Scientific Reports, 2019)
